The values below come from KR20140095558A (dated 2014).

For the assay, the target named is T1, BSA (bovine serum albumin) (bovine (송아지 혈청 알부민), UniProt P02769 25-607).
T1 construct: Negative control antigen of the phage ELISA; also called 송아지 혈청 알부민
In words: phage ELISA, 1% BSA coated, anti-M13 peroxidase, OD 492 nm. In general terms: An ELISA detects its analyte on a solid surface through an enzyme-linked reagent.

T1 sequence (P02769 25-607 limits assumed): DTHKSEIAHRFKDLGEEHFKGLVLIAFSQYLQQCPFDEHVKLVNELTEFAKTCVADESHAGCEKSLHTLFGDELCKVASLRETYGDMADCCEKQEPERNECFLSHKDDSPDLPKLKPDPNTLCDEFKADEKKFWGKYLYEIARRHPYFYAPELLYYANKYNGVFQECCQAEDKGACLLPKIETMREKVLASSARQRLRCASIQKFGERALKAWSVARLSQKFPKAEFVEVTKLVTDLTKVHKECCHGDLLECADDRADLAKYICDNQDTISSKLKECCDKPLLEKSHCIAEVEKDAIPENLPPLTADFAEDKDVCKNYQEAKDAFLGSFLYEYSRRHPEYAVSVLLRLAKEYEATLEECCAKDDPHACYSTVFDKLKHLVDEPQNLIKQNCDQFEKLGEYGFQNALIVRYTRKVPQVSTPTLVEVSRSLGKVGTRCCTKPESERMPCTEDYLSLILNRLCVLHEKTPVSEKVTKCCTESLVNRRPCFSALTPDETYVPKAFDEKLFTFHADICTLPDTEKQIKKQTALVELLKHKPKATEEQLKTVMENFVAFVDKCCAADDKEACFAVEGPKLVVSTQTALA

B1: SC06-429 (scFv)
scFv: QVQLVQSGAEVKNPGESLKISCKGSGYTFTSYWIGWVRQMPGKGLEWMGSIYPGDSDTRYSPSFQGQVTISVDKSISTAYLQWSSLKASDTAMYYCARQYRAGSTTRFDPWGQGTLVTVSSGTGGSGGTGSGTGGSTDVVMTQSPLSLPVTPGEPASISCRSSQSLRHRNGNNYLDWYLQKPGQSPQLLIYLGSNRASGVPDRFSGSGSGTDFTLKISRVEAEDVGIYYCMQALQTPLTFGGGTKVEIK
For the molecule B1, the binding result is “no binding”.

B2: SC06-016 (scFv)
scFv: QVQLVQSGPEVKKPGASVTVSCKASGYSFSSYGISWVRQAPGQGLEWMGRIIPVGGNTLYSQMFQGRVTMTSDTSTSTVYLELSSLRSEDTAVYFCARDGGRWQFDYWGQGTLVTVSSGTGGSGGTGSGTGGSTDIQLTQSPSSVSASVGDRVTITCRASQGISNWLAWYQQKPGKAPELLIYAASSLQSGVPPRFSGSASGTDFTLTISSLQPEDFATYYCQQSKNFPYTFGQGTKVEIK
For the molecule B2, the binding result is reported as “no binding”.

B3: SC05-187 (scFv)
scFv: EVQLVQSGAEVKKPGESLKISCKGSGYSFTKYWIGWVRQMPGKGLEWMGIIYPGDSDTRYSPSFQGQVTISADKSISTAYLQWSSLKASDTAMYYCARGSGIATGNSFDSWGQGTLVTVSSGTGGSGGTGSGTGGSTQTVVTQEPSLTVSPGGTVTLTCASSTGAVTSGYYPNWFQQKPGQAPRALIYSTSKKHSWTPARFSGSLLGGRAALTLSGAQPEDEADYYCLLSYGGARVFGGGTKLTVL
In the case of B3, the binding result is “no binding”.

B4: SC06-043 (scFv)
scFv: EVQLVESGAEVKKPGESLKISCKGSGYSFTSYWIGWVRQMPGKGLEWMGIIYPGDSDTRYSPSFQGQVTISADKSISTAYLQWSSLKASDTAMYYCARRYCSGGTCSDGFDIWGQGTMVTVSSGTGGSGGTGSGTGGSTQSALTQPPSASGSPGQSVTISCTGTSSDVGGYNYVSWYQQHPGKAPKLMIYEVSKRPSGVPDRFSGSKSGNTASLTVSGLQAEDEADYYCSSYAGSNNLVFGGGTKLTVL
Consider B4, for which the binding result is “no binding”.

B5: SC06-050 (scFv)
scFv: EVQLVESGPEVKKPGASVKVSCEASGYNLDNYGITWVRQAPGQGLEWLGWISAYNAKTEYGQRLQGRVTMTTDTATSTAYLELRSLRSDDTAVYYCARVLGYRGGWYDEGDAFDVWGQGTMVTVSSGTGGSGGTGSGTGGSTDIQLTQSPSFLSASVGDRVTITCRASQGIRSHLAWYQQKAGKAPKLLIYAASTLQSGVPSRFSGSGSGTEFTLTISSLQPDDFAAYYCQQLNTYPITFGQGTRLEIK
notes: also called SC05-050
Take B5: the binding result is “no binding”.

B6: SC06-432 (scFv)
scFv: QLQLQESGPGLVKPSQTLSLTCTVSGGSISSGGYYWSWIRQHPGKGLEWIGYIYYSGSTYYNPSLKSRVTISVDTSKNQFSLKLSSVTAADTAVYYCARERILDRMNDYWGQGTLVTVSSGTGGSGGTGSGTGGSTQSVVTQPPSVSGAPGQRVTISCTGSSSNIGAGYDVHWYQQLPGTAPKLLIYGNSNRPSGVPDRFSGSKSGTSASLAITGLQAEDEADYYCQSSDSSLNILFGGGTKLTVL
For the molecule B6, the binding result is recorded as “no binding”.

B7: SC06-049 (scFv)
scFv: QVQLVQSGAEVKKPGESLKISCKGSGYSFTSYWIGWVRQMPGKGLEWMGIIYPGDSDTRYSPSFQGQVTISADKSIGTAYLQWSSLKASDTAMYYCARLFRVRGGHFDSWGQGTLVTVSSGTGGSGGTGSGTGGSTQSALTQPASVSGSPGQSITISCTGTNSDVGGYNYVSWYQQHPGKAPKLLIYDVTNRPSGVSNRFSASKSGNTASLTISGLQAEDEADYYCSSFTSSSTRVFGGGTKLTVL
For B7, the binding result is reported as “no binding”.

B8: SC05-179 (scFv)
scFv: EVQLVESGGGLVKPGGSLGLSCAASGFFFSDYSMSWIRQAPGKGLEWLSNISGSGHSTKYAESMRGRITISRDNAKKSLSLQLNSLRAEDTAVYFCVRGGGYRMDVWGQGTTVTVSSGTGGSGGTGSGTGGSTQSALTQPRSVPGSPGQSVTISCTGTSSDVGGYNYVSWYQQHPGKAPKLMIYDVSKRPSGVPDRFSGSKSGNTASLTVSGLQAEDEADYYCSSYAGSNNFVVFGGGTKLTVL
For the molecule B8, the binding result is listed as “no binding”.
